From patent US20220282217A1 (BIONTECH US, published 2022)
Values belong to the binder of their own block, whether it stands above or below them.

What was measured:
HLA-A03.01 = molecular target: T1, HLA-A03.01 (human); experiment: competition vs radiolabeled reference peptide on purified MHC I, gel filtration
T1 construct: As for HLA-A02.01
Method: (§1) Peptides were incubated at varying concentrations with these complexes for 2 days, and the amount of remaining radiolabeled peptide bound to […] was measured using size exclusion gel-filtration.

[1] = molecular target: T2, HLA class I molecule B07.02; experiment: competition with radiolabeled reference peptide on purified MHC I
T2 construct: Purified MHC class I complex; also called HLA-B07:02
Method: as §1

HLA-B08.01 [2] = molecular target: T3, HLA-B08.01 (human); experiment: pMHC-I complex dissociation at 37 C, 125I-b2m, half-life
T3 construct: As for HLA-A02.01
Method in brief: (§2)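 Biotinylated MHC-I heavy chain made in E. coli, captured on streptavidin plates and complexed with peptide and radiolabelled light chain. Dissociation started with excess unlabelled light chain at 37 °C. Stability is the half-life in hours from scintillation counts.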

HLA-A24.02 = molecular target: T4, HLA-A24.02 (human); experiment: competition vs radiolabeled reference peptide on purified MHC I, gel filtration
T4 construct: As for HLA-A02.01
Method: as §1

HLA-A02.01 [3] = molecular target: HLA-A02.01 (human); experiment: as above
Method: as §1

[4] = molecular target: T5, HLA class I molecule A01.01; experiment: competition with radiolabeled reference peptide on purified MHC I
T5 construct: Purified MHC class I complex; also called HLA-A01:01
Method: as §1

HLA-A02.01 [5] = molecular target: HLA-A02.01 (human); experiment: pMHC-I complex dissociation at 37 C, 125I-b2m, half-life
Method in brief: as §2

HLA-A02.01 [6] = molecular target: T6, HLA-A02.01 (human); experiment: competition with radiolabeled reference peptide, purified MHC I
T6 construct: Purified class I MHC
Method: as §1

HLA-B08.01 [7] = molecular target: T7, HLA-B08.01 (human); experiment: pMHC-I dissociation half-life, 125I-b2m
T7 construct: Purified class I MHC
Method: (§3) Briefly, synthetic genes encoding biotinylated MHC-I heavy and light chains are expressed in E. coli and purified from inclusion bodies using standard methods. […] These reactions are carried out in streptavidin coated microplates to bind the biotinylated MHC-I heavy chains to the surface and allow measurement of radiolabeled light chain to monitor complex formation. Dissociation is initiated by addition of higher concentrations of unlabeled light-chain and incubation at 37° C. Stability is defined as the length of time in hours it takes for half of the complexes to dissociate, as measured by scintillation counts.

HLA-A02.01 [8] = molecular target: T6, HLA-A02.01; experiment: pMHC-I dissociation half-life, 125I-b2m
Method: as §3

IC50 (HLA-A03.01): 413 nM
Binder: LFFFFFETK (also called C15ORF40(+1))

IC50 [1]: 1330 nM
Binder: HVLPEPHLAL (also called GATA3 . . ; CSNH)

Stability (T1/2 (h)) (HLA-B08.01 [2]): 0 h
Binder: LTINKEEAL (also called BCR: ABL (e13a2, aka b2a2))

IC50 (HLA-A24.02): 141 nM
Binder: RRMPPCLANF (also called C15ORF40(+1))

IC50 [1]: 109 nM
Binder: QPVLWTTPPL (also called GATA3 . . ; CSNH)

IC50 (HLA-A03.01): 1770 nM
Binder: LLTSSSREWK (also called β2M, . . ; SIRH)

IC50 (HLA-A03.01): 104 nM
IC50 (HLA-A02.01 [3]): 0.6 nM
Binder: KLFSCLSFLS (also called C15ORF40(+1))

Stability (T1/2 (h)) (HLA-B08.01 [2]): 0 h
Binder: SLPRFILMEL (also called ALK, L1196M)

IC50 [4]: 606 nM
Binder: GSNEVTTRY (also called RBM27(+1))

Stability (T1/2 (h)) (HLA-A02.01 [5]): 0.6 h
Stability (T1/2 (h)) (HLA-B08.01 [2]): 0 h
Binder: QLQDKFEHL (also called EGFR: SEPT14)

IC50 (HLA-A24.02): 13.7 nM
Binder: KFPELLCVW (also called β2M, . . ; SIRH)

Stability (T1/2 (h)) (HLA-B08.01 [2]): 0 h
Binder: SVCFFFFSV (also called CNOT1(+1))

IC50 (HLA-A24.02): 73.4 nM
Binder: FFCYILNTMF (also called CNOT1(-1))

IC50 [1]: 2110 nM
Binder: VPAVPFDLHF (also called GATA3 . . ; CSNH)

IC50 [4]: 15500 nM
Binder: TGSNEVTTRY (also called RBM27(+1))

IC50 (HLA-A03.01): 35.6 nM
Binder: MANGSLLNY (also called BTK, C481S)

IC50 [4]: 4.4 nM
Binder: TTNAFSGEY (also called RAC1, P29S)

IC50 (HLA-A03.01): 14.3 nM
Binder: TTLNSPPLKK (also called β2M, . . ; MPAV)

IC50 [1]: 72.6 nM
Binder: LPQARLCLI (also called MSH3(-1))

IC50 (HLA-A02.01 [6]): 709 nM
Stability (T1/2 (h)) (HLA-B08.01 [7]): 0 h
Stability (T1/2 (h)) (HLA-A02.01 [8]): 0.4 h
Binder: GMNQRPILTI (also called TP53, R248Q)

Stability (T1/2 (h)) (HLA-B08.01 [7]): 0 h
Binder: GMNWRPILTI (also called TP53, R248W)

IC50 (HLA-A02.01 [3]): 13 nM
Stability (T1/2 (h)) (HLA-A02.01 [5]): 5.1 h
Stability (T1/2 (h)) (HLA-B08.01 [2]): 0 h
Binder: ELFPLIFPA (also called C11orf95: RELA)

Stability (T1/2 (h)) (HLA-B08.01 [2]): 0 h
Binder: MQLMPFGCL (also called EGFR, T790M)

IC50 (HLA-A02.01 [6]): 3670 nM
Stability (T1/2 (h)) (HLA-B08.01 [7]): 0 h
Stability (T1/2 (h)) (HLA-A02.01 [8]): 0 h
Binder: CMGGMNQRPI (also called TP53, R248Q)

Stability (T1/2 (h)) (HLA-B08.01 [7]): 0 h
Binder: CMGGMNWRPI (also called TP53, R248W)

Stability (T1/2 (h)) (HLA-B08.01 [2]): 0 h
Binder: MQLMPFGCLL (also called EGFR, T790M)

Stability (T1/2 (h)) (HLA-B08.01 [2]): 0 h
Binder: VQLIMQLMPF (also called EGFR, T790M)

Stability (T1/2 (h)) (HLA-B08.01 [7]): 0 h
Binder: TQLARFFPI (also called RNF43, RHTP)

IC50 [1]: 2530 nM
Binder: RPLQTHVLPE (also called GATA3 . . ; CSNH)

Stability (T1/2 (h)) (HLA-B08.01 [7]): 0 h
Binder: SMNRRPILTI (also called TP53, G245S)

IC50 (HLA-A24.02): 28.2 nM
Binder: RLSSVLQRF (also called β2M, . . ; SQIS)

IC50 (HLA-A24.02): 8.7 nM
Binder: RMPPCLANF (also called C15ORF40(+1))

IC50 (HLA-A03.01): 101 nM
Binder: LSFLSSWDYR (also called C15ORF40(+1))

IC50 (HLA-A03.01): 118 nM
Binder: LTSSSREWK (also called β2M, . . ; SIRH)

Stability (T1/2 (h)) (HLA-B08.01 [7]): 0 h
Binder: MALNSEALSV (also called TMPRSS2: ERG)

IC50 (HLA-A24.02): 5 nM
Binder: EYMANGSLL (also called BTK, C481S)

IC50 (HLA-A03.01): 9.8 nM
Binder: TTLNSPPLK (also called β2M, . . ; MPAV)

IC50 (HLA-A24.02): 0.8 nM
Binder: LYGLLLEML (also called ESR1, D538G)

IC50 (HLA-A03.01): 19 nM
Binder: SLQPPPPGFK (also called C15ORF40(+1))

Stability (T1/2 (h)) (HLA-B08.01 [7]): 0 h
Binder: CMGSMNRRPI (also called TP53, G245S)

IC50 (HLA-A24.02): 643 nM
Binder: GFKLFSCLSF (also called C15ORF40(+1))

IC50 [1]: 32.8 nM
Binder: PPRPPRAAC (also called LMAN1(+1))

IC50 (HLA-A02.01 [6]): 3840 nM
Stability (T1/2 (h)) (HLA-B08.01 [7]): 0 h
Stability (T1/2 (h)) (HLA-A02.01 [8]): 0 h
Binder: SMNRRPILT (also called TP53, G245S)

IC50 (HLA-A03.01): 33 nM
Binder: RMKVPLMK (also called FAM111B(-1))

Stability (T1/2 (h)) (HLA-B08.01 [7]): 0 h
Binder: LPRKPTRAA (also called TP53, QPSL)

Stability (T1/2 (h)) (HLA-B08.01 [2]): 0 h
Binder: IMQLMPFGCL (also called EGFR, T790M)

IC50 [1]: 17 nM
Binder: EPHLALQPL (also called GATA3 . . ; CSNH)

IC50 [1]: 48.6 nM
Binder: GPPRPPRAAC (also called LMAN1(+1))

IC50 (HLA-A02.01 [3]): 15300 nM
Stability (T1/2 (h)) (HLA-A02.01 [5]): 0 h
Stability (T1/2 (h)) (HLA-B08.01 [2]): 0 h
Binder: VLERCPHRPI (also called FGFR3, S249C)

Stability (T1/2 (h)) (HLA-B08.01 [2]): 0 h
Binder: QLIMQLMPF (also called EGFR, T790M)

IC50 [4]: 10.5 nM
Binder: YTTNAFSGEY (also called RAC1, P29S)

Stability (T1/2 (h)) (HLA-B08.01 [2]): 0 h
Binder: LQSLPRFILM (also called ALK, L1196M)

Stability (T1/2 (h)) (HLA-B08.01 [7]): 0 h
Binder: MLTDSLFLPI (also called VHL, QCIL)

IC50 (HLA-A02.01 [3]): 4260 nM
Stability (T1/2 (h)) (HLA-A02.01 [5]): 0.2 h
Stability (T1/2 (h)) (HLA-B08.01 [2]): 0 h
Binder: IQLQDKFEHL (also called EGFR: SEPT14)

Stability (T1/2 (h)) (HLA-B08.01 [7]): 0 h
Binder: NQRPILTII (also called TP53, R248Q)

IC50 [4]: 64.2 nM
Binder: ILDTAGHEEY (also called KRAS, Q61H)

IC50 [4]: 7 nM
Binder: ILDTAGREEY (also called NRAS, Q61R)

IC50 [4]: 8.6 nM
Binder: ILDTAGLEEY (also called KRAS, Q61L)

IC50 [4]: 14.3 nM
Binder: ILDTAGKEEY (also called NRAS, Q61K)

Stability (T1/2 (h)) (HLA-B08.01 [7]): 0 h
Binder: MNWRPILTI (also called TP53, R248W)

IC50 (HLA-A03.01): 5.4 nM
Binder: TLNSPPLKK (also called β2M, . . ; MPAV)

IC50 (HLA-A03.01): 216 nM
Binder: ALFFFFFETK (also called C15ORF40(+1))

IC50 (HLA-A03.01): 63.6 nM
Binder: CTTLNSPPLK (also called β2M, . . ; MPAV)
